Results published in patent US11499162B2, “Plants having increased tolerance to herbicides” (BASF SE, priority 2016, dated 2022).
Changes are numbered by the printed parent chain. Names may count otherwise.

B1: ΔS129_A130: TriA deletion variant of SEQ ID NO: 2 (protein)
chain: MQTLSIQHGTLVTMDQYRRVLGDSWVHVQDGRIVALGVHAESVPPPADRVIDARGKVVLPGFINAHTHVNQILLRGGPSHGRQLYDWLFNVLYPGQKAMRPEDVAVAVRLYCAEAVRSGITTINDNADIYPGNIEAAMAVYGEVGVRVVYARMFFDRMDGRIQGYVDALKARSPQVELCSIMEETAVAKDRITALSDQYHGTAGGRISVWPAPAITPAVTVEGMRWAQAFARDRAVMWTLHMAESDHDERLHWMSPAEYMECYGLLDERLQVAHCVYFDRKDVRLLHRHNVKVASQVVSNAYLGSGVAPVPEMVERGMAVGIGTDDGNCNDSVNMIGDMKFMAHIHRAVHRDADVLTPEKILEMATIDGARSLGMDHEIGSIETGKRADLILLDLRHPQTTPHHHLAATIVFQAYGNEVDTVLIDGNVVMENRRLSFLPPERELAFLEEAQSRATAILQRANMVANPAWRSL
modifications: Pseudomonas
B2: ΔA130_I131: TriA deletion variant of SEQ ID NO: 2 (protein)
chain: B1 chain with I129S
modifications: Pseudomonas
B3: N302E: mutated TriA variant of SEQ ID NO: 2 (protein)
chain: MQTLSIQHGTLVTMDQYRRVLGDSWVHVQDGRIVALGVHAESVPPPADRVIDARGKVVLPGFINAHTHVNQILLRGGPSHGRQLYDWLFNVLYPGQKAMRPEDVAVAVRLYCAEAVRSGITTINDNADSAIYPGNIEAAMAVYGEVGVRVVYARMFFDRMDGRIQGYVDALKARSPQVELCSIMEETAVAKDRITALSDQYHGTAGGRISVWPAPAITPAVTVEGMRWAQAFARDRAVMWTLHMAESDHDERLHWMSPAEYMECYGLLDERLQVAHCVYFDRKDVRLLHRHNVKVASQVVSEAYLGSGVAPVPEMVERGMAVGIGTDDGNCNDSVNMIGDMKFMAHIHRAVHRDADVLTPEKILEMATIDGARSLGMDHEIGSIETGKRADLILLDLRHPQTTPHHHLAATIVFQAYGNEVDTVLIDGNVVMENRRLSFLPPERELAFLEEAQSRATAILQRANMVANPAWRSL
modifications: Pseudomonas
B4: Q71NL92A: mutated TriA variant of SEQ ID NO: 2 (protein)
chain: B3 chain with Q71N, L92A, E302N
modifications: Pseudomonas
B5: N70S: mutated TriA variant of SEQ ID NO: 2 (protein)
chain: B3 chain with N70S, E302N
modifications: Pseudomonas
B6: Q71NL92AD128G: mutated TriA variant of SEQ ID NO: 2 (protein)
chain: B3 chain with Q71N, L92A, D128G, E302N
modifications: Pseudomonas
B7: Q71NL92AY93F: mutated TriA variant of SEQ ID NO: 2 (protein)
chain: B3 chain with Q71N, L92A, Y93F, E302N
modifications: Pseudomonas
B8: Q71S: mutated TriA variant of SEQ ID NO: 2 (protein)
chain: B3 chain with Q71S, E302N
modifications: Pseudomonas
B9: Q71V: mutated TriA variant of SEQ ID NO: 2 (protein)
chain: B3 chain with Q71V, E302N
modifications: Pseudomonas
B10: F157S: mutated TriA variant of SEQ ID NO: 2 (protein)
chain: B3 chain with F157S, E302N
modifications: Pseudomonas
B11: Y304K: mutated TriA variant of SEQ ID NO: 2 (protein)
chain: B3 chain with E302N, Y304K
modifications: Pseudomonas
B12: Q71NL92AY93L: mutated TriA variant of SEQ ID NO: 2 (protein)
chain: B3 chain with Q71N, L92A, Y93L, E302N
modifications: Pseudomonas
B13: Q71NL92AD128A: mutated TriA variant of SEQ ID NO: 2 (protein)
chain: B3 chain with Q71N, L92A, D128A, E302N
modifications: Pseudomonas
B14: Q71T: mutated TriA variant of SEQ ID NO: 2 (protein)
chain: B3 chain with Q71T, E302N
modifications: Pseudomonas
B15: Q71NL88AL92A: mutated TriA variant of SEQ ID NO: 2 (protein)
chain: B3 chain with Q71N, L88A, L92A, E302N
modifications: Pseudomonas
B16: ΔR174_L180: TriA deletion variant of SEQ ID NO: 2 (protein)
chain: MQTLSIQHGTLVTMDQYRRVLGDSWVHVQDGRIVALGVHAESVPPPADRVIDARGKVVLPGFINAHTHVNQILLRGGPSHGRQLYDWLFNVLYPGQKAMRPEDVAVAVRLYCAEAVRSGITTINDNADSAIYPGNIEAAMAVYGEVGVRVVYARMFFDRMDGRIQGYVDALKACSIMEETAVAKDRITALSDQYHGTAGGRISVWPAPAITPAVTVEGMRWAQAFARDRAVMWTLHMAESDHDERLHWMSPAEYMECYGLLDERLQVAHCVYFDRKDVRLLHRHNVKVASQVVSNAYLGSGVAPVPEMVERGMAVGIGTDDGNCNDSVNMIGDMKFMAHIHRAVHRDADVLTPEKILEMATIDGARSLGMDHEIGSIETGKRADLILLDLRHPQTTPHHHLAATIVFQAYGNEVDTVLIDGNVVMENRRLSFLPPERELAFLEEAQSRATAILQRANMVANPAWRSL
modifications: Pseudomonas
B17: ΔA170_S182: TriA deletion variant of SEQ ID NO: 2 (protein)
chain: MQTLSIQHGTLVTMDQYRRVLGDSWVHVQDGRIVALGVHAESVPPPADRVIDARGKVVLPGFINAHTHVNQILLRGGPSHGRQLYDWLFNVLYPGQKAMRPEDVAVAVRLYCAEAVRSGITTINDNADSAIYPGNIEAAMAVYGEVGVRVVYARMFFDRMDGRIQGYVDIMEETAVAKDRITALSDQYHGTAGGRISVWPAPAITPAVTVEGMRWAQAFARDRAVMWTLHMAESDHDERLHWMSPAEYMECYGLLDERLQVAHCVYFDRKDVRLLHRHNVKVASQVVSNAYLGSGVAPVPEMVERGMAVGIGTDDGNCNDSVNMIGDMKFMAHIHRAVHRDADVLTPEKILEMATIDGARSLGMDHEIGSIETGKRADLILLDLRHPQTTPHHHLAATIVFQAYGNEVDTVLIDGNVVMENRRLSFLPPERELAFLEEAQSRATAILQRANMVANPAWRSL
modifications: Pseudomonas

Assay type: biochemical
Conditions: pH 7.2
Experimental: EXAMPLE 3: Protein Purification. TriA and variants thereof were produced in E. coli BL21(DE3) Gold (Agilent Technologies, Germany). Therefore E. coli was transformed with appropriate pET24d N-HIS tag expression vector and chaperone plasmid pGro7 (chaperones groEL and groES). Bacterial strains were grown at 30° C. in 100 mL LB for 20 h and protein expression induced with 0.1 mM IPTG at 25° C. for 20 hs. Cells were harvested by centrifugation at 3000 rpm at 4° C. for 20 min, resuspended in Bug Buster protein extraction reagent (Novagen, Germany) according to manufactures instructions. Lysates were clarified by centrifugation. Samples of bovine serum albumin ([…]) were loaded onto each gel analyzed by densitometry to provide an internal standard. Protein determinations were verified using Coomassie protein assay dye, according to manufactures instruction (Thermo Scientific; USA). The HIS-tagged enzymes were purified by metal ion affinity chromatography using Ni-IDA 1000 kit (Macherey-Nagel, Germany) following manufactures instructions. Protein purity was accessed by SDS-PAGE using NuPAGE Novex 4-12% Bis-Tris pre-cast gels (Life Technologies; USA) stained with Coomassie Brilliant Blue (Serva, Germany). Protein concentrations were estimated by measuring absorbance at 280 nm using Lambda Bio+(Perkin Elmer, USA). EXAMPLE 4: Enzyme kinetics. Resting cell suspension containing triA gene were incubated with various azines, melamine and atrazine and the culture filtrate was analyzed by UPLC-HR-MS. Substrates were obtained either from Sigma-Aldrich or synthesized internally. Synthetic standards and enzyme reaction products were analysed by UPLC-HR-MS (Thermo/Dionex UPLC UltiMate3000 coupled to a QExactive high resolution mass spectrometer). A Waters Acquity HSS T3 column (2.1 mm; 100 mm; […]) was used with a mobile phase water/acetonitrile (0.1% formic acid) with a flow rate of […]. Enzymes were used solved 25 mM sodium phosphate buffer (pH 7.2) with substrate concentration in the range of 1 nM to 10 nM at 30° C. Over time, the original azine peak disappeared whereas the formed OH-Metabolite (reaction product) increased. The product was identified by determination of the exact formula and by analysis of the accurate MS-MS fragments. Moreover for some of the formed products authentic standards were co-eluted. Degradation in % was calculated against the cells harboring the empty vector as control.

| Molecule | Degradation in % of 6-cyclopentyl-N4-(2,3,4,5,6-pentafluorophenyl)-1,3,5-triazine-2,4-diamine [%] | Degradation in % of Melamine [%] |
| --- | --- | --- |
| B1 | 3 | 0 |
| B2 | 0 | 3 |
| B3 | 1 | 8 |
| B4 | 99 | 87 |
| B5 | 0 | 0 |
| B6 | 61 | 0 |
| B7 | 100 | 78 |
| B8 | 0 | 43 |
| B9 | 0 | 0 |
| B10 | 0 | 10 |
| B11 | 0 | 2 |
| B12 | 100 | 99 |
| B13 | 98 | 0 |
| B14 | 0 | 0 |
| B15 | 64 | 40 |
| B16 | 0 | 1 |
| B17 | 2 | 0 |
